These results are taken from article PMC2693666 (PLoS ONE, 2009).

B1: recMoDpl(26–155) (domain or fragment, mouse, UniProt Q9QUG3 26-155, looked up)
chain: ARGIKHRFKWNRKVLPSSGGQITEARVAENRPGAFIKQGRKLDIDFGAEGNRYYAANYWQFPDGIYYEGCSEANVTKEMLVTSCVNATQAANQAEFSREKQDSKLHQRVLWRLIKEICSAKHCDFWLERG
notes: also called recDpl
B2: recMoPrP(89–230) (domain or fragment)
chain: not shown
B3: recMoPrP(23–230) (natural protein)
chain: not shown

Holding throughout (experiment): SPR; Biacore 2000, 20°C; […] (10 mM HEPES, 150 mM NaCl), pH 7.4, 20 µL/min; 1:1 (Langmuir) model
Holding throughout (details): both partners purified

The test “recMoPrP(23–230)” has as its target B3.
In the test “recMoPrP(89–230)” the target is B2.
The test “recMoDpl(26–155)” has as its target B1.

In the test with recMoPrP(23–230), B1 had a Kd of 11 nM, a koff of 0.0013 s⁻¹ and a kon of 120000 M⁻¹ s⁻¹. For the same molecule, in the test with recMoPrP(89–230), the equilibrium dissociation constant (Kd) was found to be 100 nM, the off-rate constant (koff) amounted to 0.00087 s⁻¹ and the kon was found to be 8400 M⁻¹ s⁻¹.

Regarding B2, the “stoichiometry N” value with recMoDpl(26–155) was 1.

As for B3, the “stoichiometry N” value with recMoDpl(26–155) came to 1.
